Measured values as given in US20260265410A1 (UNIVERSITY OF FLORIDA RESEARCH FOUNDATION, published 2026).
Substitutions are numbered along the chain they refer to.

T1: mouse PTPRG ECD (amino acid residues 20-733 of mouse PTPRG) fused to hFc (mouse, UniProt Q05909 20-733)
T1 construct: Produced in-house; also called mPTPRG-ECD; Mouse PTPRG-ECD-hFc; not shown: human Fc (hFc)
T1 sequence: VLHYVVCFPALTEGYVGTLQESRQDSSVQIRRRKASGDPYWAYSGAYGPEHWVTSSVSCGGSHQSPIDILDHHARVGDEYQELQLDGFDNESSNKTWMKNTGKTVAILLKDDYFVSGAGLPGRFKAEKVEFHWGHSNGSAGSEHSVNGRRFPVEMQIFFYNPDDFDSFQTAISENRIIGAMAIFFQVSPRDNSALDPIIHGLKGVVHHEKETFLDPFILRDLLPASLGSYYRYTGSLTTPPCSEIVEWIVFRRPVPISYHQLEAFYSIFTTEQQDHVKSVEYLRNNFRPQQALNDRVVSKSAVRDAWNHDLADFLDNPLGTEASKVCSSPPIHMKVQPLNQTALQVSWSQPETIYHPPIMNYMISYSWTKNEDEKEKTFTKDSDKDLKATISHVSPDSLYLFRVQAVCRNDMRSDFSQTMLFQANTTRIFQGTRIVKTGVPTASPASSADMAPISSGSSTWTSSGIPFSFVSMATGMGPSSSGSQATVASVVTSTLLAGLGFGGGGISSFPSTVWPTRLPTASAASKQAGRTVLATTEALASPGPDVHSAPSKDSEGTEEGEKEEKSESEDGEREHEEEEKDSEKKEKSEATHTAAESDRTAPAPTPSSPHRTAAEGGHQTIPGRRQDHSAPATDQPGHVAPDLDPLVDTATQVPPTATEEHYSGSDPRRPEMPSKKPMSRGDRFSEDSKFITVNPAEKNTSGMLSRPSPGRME

T2: C-terminal domain (CTD) of human PTPRG (amino acid residues 349~736 of human PTPRG) (human, UniProt P23470 349-736)
T2 construct: also called hPTPRG-CTD; human PTPRG carboxyl domain
T2 sequence: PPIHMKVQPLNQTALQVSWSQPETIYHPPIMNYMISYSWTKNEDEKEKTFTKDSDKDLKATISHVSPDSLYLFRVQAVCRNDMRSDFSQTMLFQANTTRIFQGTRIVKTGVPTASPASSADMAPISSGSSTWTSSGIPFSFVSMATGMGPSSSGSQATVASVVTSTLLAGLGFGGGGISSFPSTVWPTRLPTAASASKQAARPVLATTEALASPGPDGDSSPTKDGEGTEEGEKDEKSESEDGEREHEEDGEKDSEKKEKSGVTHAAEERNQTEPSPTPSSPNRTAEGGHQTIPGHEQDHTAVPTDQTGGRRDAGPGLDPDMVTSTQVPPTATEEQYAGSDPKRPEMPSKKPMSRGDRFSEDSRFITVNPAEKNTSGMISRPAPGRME

T3: human Nectin-2 extracellular domain (amino acid residues 1-360 of human Nectin-2) fused to hFc (human, UniProt Q92692 32-360)
T3 construct: Bought; also called hNectin-2-ECD-hFc; NECTIN2-ECD-hFc; not shown: human Fc (hFc)
T3 sequence: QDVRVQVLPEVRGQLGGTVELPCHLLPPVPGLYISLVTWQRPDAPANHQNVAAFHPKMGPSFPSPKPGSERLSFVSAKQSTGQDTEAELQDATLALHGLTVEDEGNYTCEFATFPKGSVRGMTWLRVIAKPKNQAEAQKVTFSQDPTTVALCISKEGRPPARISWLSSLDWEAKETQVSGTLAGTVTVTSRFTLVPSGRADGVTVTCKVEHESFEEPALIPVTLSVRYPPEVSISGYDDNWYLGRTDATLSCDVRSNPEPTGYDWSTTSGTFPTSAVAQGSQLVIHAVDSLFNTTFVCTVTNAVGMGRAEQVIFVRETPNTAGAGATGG

T4: human CD105-ECD: amino acid residues Met 1-Gly 586 of human CD105 (Sino bio: Cat: 10149-H02H) (human, UniProt P17813 26-586)
T4 construct: Bought; also called hCD105-ECD-hFc; hCD105-hFc
T4 sequence: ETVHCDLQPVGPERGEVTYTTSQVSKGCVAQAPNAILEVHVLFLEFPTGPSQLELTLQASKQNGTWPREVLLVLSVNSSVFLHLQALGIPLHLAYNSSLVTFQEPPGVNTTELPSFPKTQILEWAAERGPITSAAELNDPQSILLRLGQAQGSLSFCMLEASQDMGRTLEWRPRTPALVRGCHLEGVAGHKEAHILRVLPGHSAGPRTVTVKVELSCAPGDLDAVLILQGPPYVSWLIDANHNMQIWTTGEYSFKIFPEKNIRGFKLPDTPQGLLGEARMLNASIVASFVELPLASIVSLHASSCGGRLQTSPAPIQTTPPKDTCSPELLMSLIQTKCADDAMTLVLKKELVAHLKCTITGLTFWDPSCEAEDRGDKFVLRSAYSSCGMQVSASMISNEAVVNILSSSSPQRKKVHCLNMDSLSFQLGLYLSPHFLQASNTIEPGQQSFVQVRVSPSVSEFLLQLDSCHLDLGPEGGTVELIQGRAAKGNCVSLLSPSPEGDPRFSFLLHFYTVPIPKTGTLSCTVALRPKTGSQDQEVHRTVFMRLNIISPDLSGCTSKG

B1: Fab_130 (Fab, V domains shown)
VH: QEQQKESGGGLFKPTDTLTLTCTVSGFSLSSNAISWVRQAPGNGLEWIGAIDNSGSAYYATWAKGRSTITRATNLNTVTLKMTSVTAADTATYFCAREDVRADSIDLNMWGPGTLVTISS
VL: SFVLTQPASVQVNLGQTVSLTCTADTLSRSYASWYQQKPGQAPVLLIYRDTSRPSGVPDRFSGSSSGNTATLTISGAQAGDEADYYCATSDGSGSSYQFVFGGGTQLTVTG
notes: Chimeric rabbit/human Fab; also called P130; clone 130
B2: Fab_1187 (Fab, V domains shown)
VH: AQSVEESGGRLVTPGTPLTLTCTVSGIDLSSYAMSWVRQAPGKGLEWIGVIDGSGSTWYANWVKGRFTISKTTTVDLKITSPTTEDTATYFCAREDYGSETIDFNIWGPGTLVTVSS
VL: B1 VL with S30R, S52R, F99Y
notes: Chimeric rabbit/human Fab; also called P1187; mAb_1187
B3: Fab_2653 (Fab, V domains shown)
VH: QEQLEESGGRLVTPGTPLTLTCTASGFSLSTYAMTWVRQAPGKGLEWIGIIDRYGYTYYANWARGRFTISKTSTTVDLKITSPTTEDTATYFCARDLPGYNVGTYFNMWGPGTLVTISS
VL: B1 VL with S30R, L46F, N68S
notes: Chimeric rabbit/human Fab; also called P2653; clone 2653
B4: Fab_3208 (Fab, V domains shown)
VH: AQSVKESEGGLFKPTDTLTLTCTVSGFSLSSYAISWVRRAPGNGLEWIGAIAGYGDAYYASWAKSRSTITRNTNENTVTLKMTSLTAADTATYFCARDDYNVDTGIWGPGTLVTISS
VL: B1 VL with S30R, S90G, F99Y
notes: Chimeric rabbit/human Fab; also called P3208; clone 3208
B5: Fab_2388 (Fab, V domains shown)
VH: QEQLKESGGGLFKPTDTLTLTCTVSGFSLSNYAISLVRQPPGNGLEWIGAIDAGGVTYYASWAKSRSTITRNTNLNTVTLKMTSLTAADTATYFCAREEWSSSSGLYFSIWGPGTLVTISS
VL: B1 VL with S30R, Q98L, F99Y
notes: Chimeric rabbit/human Fab; also called P2388; clone 2388
B6: Fab_240 (Fab, V domains shown)
VH: AQSLEESGGRLVTPGTPLTLTCTVSGFSLSAYAMSWVRQAPGKGLEWIGIISSYGNTYYATWAKGRFTISKTSTTVDLKITSPTTEDTATYFCARGDYGNGMSIWGPGTLVTVSS
VL: B1 VL with S30R, S52R, F99C
notes: Chimeric rabbit/human Fab; also called P240; clone 240
B7: Fab_11 (Fab, V domains shown)
VH: AQSLEESGGRLVTPGTPLTLTCTVSGFSLSSYAMTWVRQAPGEGLEWIGTIGAGGSPYYASWAKGRFTISKTATTVNLKIISPTTEDTATYFCAREGGGSYYFDLWGPGTLVTVSS
VL: B1 VL with S96T, Y97F, Q98H
notes: Chimeric rabbit/human Fab; also called P11; mAb_11
B8: Fab_1707 (Fab, V domains shown)
VH: AQSLEEFGGGLIKPGGTLTLTCTASGFTISSYDMSWVRQAPGSGLEWIGTMAYGGDTYHASWAKSRSTITRDTNLNTVTLKMTSLTVADTATYFCARDVGSGHYYDDMYLWGPGTLVTVSS
VL: B1 VL with L14F, S30R, S90G, Q98N, F99Y
notes: Chimeric rabbit/human Fab; also called P1707
B9: Fab_17 (Fab, V domains shown)
VH: AQSLEEFGGRLATPGTPLTLTCTASGFSLGTYSMSWVRQAPGKGLEWIGTIGGRGDAYYASWAKGRFTISRTSTTVDLKMTSLATEDTATYFCVRENYGYAFDIWGPGTLVTISS
VL: B1 VL with S30R, F99C
notes: Chimeric rabbit/human Fab; also called P17; clone 17
B10: Fab_28 (Fab, V domains shown)
VH: AQSVEESGGRLVTPGIPLTLTCTVSGFSLNNYAMSWVRQAPGKGLEWIGMIDSGGAAYYATWARGRFTISRTSTTVDLKITSPTTEDTATYFCARELSSLYGAFDPWGPGTLVTVSS
VL: B1 VL with S30R, F99C
notes: Chimeric rabbit/human Fab; also called P28; clone 28
B11: Fab_2861 (Fab, V domains shown)
VH: AQSVEESGGRLVTPGTPLTLTCTVSGIDLSSYAMGWVRQAPGKGLEYIGIIVSDGRTYYTSWAKGRFTISKTSTTVDLKMTSPTTEDTATYFCAREGYGYYFDIWGPGTLVTISS
VL: B1 VL with S30R, S90A
notes: Chimeric rabbit/human Fab; also called P2861; clone 2861

Key:
[1] = target: T1, mouse PTPRG ECD (amino acid residues …); test: ELISA, one condition per Fab and antigen; y axis 0 to 1.8 without name or unit
[2] = target: T2, C-terminal domain (CTD) of human PTPRG …; test: as above
[3] = target: T5, human PTPRG on the cell surface (U937 cells, HEL cells) (human, UniProt P23470 20-1445); test: flow cytometry on whole HEL cells, screen of the 28 clones (Ctrl row = 0); PTPRG is named as the antigen on HEL cells only in the later examples
T5 construct: Endogenous PTPRG of human AML cell lines
T5 sequence (P23470 20-1445): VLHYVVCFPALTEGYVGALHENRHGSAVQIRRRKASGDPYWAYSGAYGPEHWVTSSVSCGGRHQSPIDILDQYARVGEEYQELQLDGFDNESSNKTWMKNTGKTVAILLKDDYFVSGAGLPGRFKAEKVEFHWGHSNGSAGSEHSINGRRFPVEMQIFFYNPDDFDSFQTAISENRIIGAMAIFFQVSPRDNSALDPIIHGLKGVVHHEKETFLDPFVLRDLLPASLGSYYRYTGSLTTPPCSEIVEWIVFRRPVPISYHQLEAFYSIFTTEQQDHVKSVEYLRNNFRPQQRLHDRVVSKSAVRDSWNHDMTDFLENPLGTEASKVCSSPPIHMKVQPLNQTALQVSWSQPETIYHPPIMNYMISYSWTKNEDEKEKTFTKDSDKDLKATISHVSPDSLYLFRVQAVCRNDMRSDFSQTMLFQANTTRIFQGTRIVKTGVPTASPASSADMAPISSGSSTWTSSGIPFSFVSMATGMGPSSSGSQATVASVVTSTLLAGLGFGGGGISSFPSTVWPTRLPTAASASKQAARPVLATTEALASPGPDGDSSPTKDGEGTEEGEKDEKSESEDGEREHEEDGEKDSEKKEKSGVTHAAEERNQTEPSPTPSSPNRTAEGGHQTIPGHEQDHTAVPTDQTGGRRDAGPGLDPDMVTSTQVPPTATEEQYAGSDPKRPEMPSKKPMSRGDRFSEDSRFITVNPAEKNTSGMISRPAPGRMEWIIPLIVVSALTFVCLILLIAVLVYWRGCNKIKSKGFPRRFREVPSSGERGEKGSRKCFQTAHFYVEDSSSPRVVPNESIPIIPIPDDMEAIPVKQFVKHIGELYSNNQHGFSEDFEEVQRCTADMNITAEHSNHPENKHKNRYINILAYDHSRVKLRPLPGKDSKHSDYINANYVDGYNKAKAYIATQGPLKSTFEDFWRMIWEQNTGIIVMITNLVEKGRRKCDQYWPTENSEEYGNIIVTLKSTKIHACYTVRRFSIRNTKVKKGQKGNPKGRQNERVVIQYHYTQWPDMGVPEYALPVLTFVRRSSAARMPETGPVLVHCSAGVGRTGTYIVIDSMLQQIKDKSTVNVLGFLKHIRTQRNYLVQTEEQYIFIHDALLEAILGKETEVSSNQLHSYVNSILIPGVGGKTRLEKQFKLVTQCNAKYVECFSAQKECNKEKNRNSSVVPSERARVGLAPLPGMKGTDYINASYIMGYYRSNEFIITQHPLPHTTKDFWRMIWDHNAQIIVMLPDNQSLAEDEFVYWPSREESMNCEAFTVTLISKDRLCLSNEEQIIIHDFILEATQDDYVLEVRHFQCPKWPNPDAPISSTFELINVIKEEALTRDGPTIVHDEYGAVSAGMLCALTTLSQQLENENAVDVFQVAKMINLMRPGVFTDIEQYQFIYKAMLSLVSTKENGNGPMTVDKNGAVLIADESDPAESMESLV

[4] = target: T3, human Nectin-2 extracellular domain …; test: ELISA, absorbance at 405 nm, one condition per Fab and antigen
[5] = target: T4, human CD105-ECD: amino acid residues …; test: as above
[6] = target: T5, human PTPRG on the cell surface (U937 …); test: flow cytometry on whole U937 cells, screen of the 28 clones (Ctrl row = 0); PTPRG is named as the antigen on U937 cells only in the later examples

Binder	binding result [1]	binding result [2]	flow cytometry binding value (the table prints no name or unit) [3]	binding result [4]	binding result [5]	flow cytometry binding value (the table prints no name or unit) [6]
B1	binds	no binding	12.6	no binding	no binding	78.3
B2	–	–	10.7	–	–	29.3
B3	binds	no binding	13.6	–	–	91.4
B4	binds	no binding	17.1	–	–	92.7
B5	–	–	15	–	–	90.9
B6	binds	no binding	17.5	–	–	92.7
B7	–	no binding	-2.13	no binding	no binding	92.9
B8	binds	no binding	16.9	–	–	92
B9	binds	no binding	15.8	–	–	87.5
B10	binds	no binding	15.8	–	–	87.5
B11	binds	no binding	14.5	–	–	85
